Assay results: article doi:10.1101/2025.08.19.671159

Biological target: 14-3-3ζ of the Tni-FNL-produced BRAF complexes (human) (UniProt P63104)
Experiment: cryo-EM structure; BRAF:14-3-3_(2):MEK complex co-expressed in Tni-FNL insect cells and purified as a complex; 3.8 Å

Substance: 14-3-3ζ of the Tni-FNL-produced BRAF complexes (from UniProt P63104 1-245) (natural protein)
- stoichiometry N: 2
